{
  "source": "the supplement of paper PMC9732359",
  "note": "± gives the uncertainty stated by the source.",
  "data": [
    {"test": "protein stability index of a GFP-peptide fusion (yeast GPS) (PSI 1-4); higher = more stable; sorted into four equal gates, so the index is relative within each strain", "settings": "ubr1∆", "method_in_brief": "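Tiled 17-residue yeast protein peptides were fused downstream of GFP in a plasmid that also expresses Cherry, and the pooled library was carried in yeast. Mid-log cultures in leucine-free medium were sorted into four equal gates by GFP/Cherry fluorescence ratio, and plasmids from each gate were PCR-amplified and Illumina-sequenced, with reads assigned to strains by barcodes. The protein stability index for each peptide was each gate's read frequency times its gate number, summed.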", "values": [
      {"sequence": "ILHTKESSNEAKKTIQN [SIR4]", "protein stability index": "2.73 ± 0.054"},
      {"sequence": "ILKSPHLSKSPADRPQG [SIR4]", "protein stability index": "2.37 ± 0.045"},
      {"sequence": "ILMGFTLKDNIVVMDCF [RRI1]", "protein stability index": "1.39 ± 0.14"},
      {"sequence": "ILNDSLIYHLKDCAEVD [IRR1]", "protein stability index": "1.71 ± 0.046"},
      {"sequence": "ILNELQPNARALERYDE [SMC1]", "protein stability index": "3.49 ± 0.086"},
      {"sequence": "ILNINNSTSKNTLLQQQ [SWI1]", "protein stability index": "2.4 ± 0.047"},
      {"sequence": "ILNSIPAAANLDALVDC [YJL039C/NUP192]", "protein stability index": "2.5 ± 0.12"},
      {"sequence": "ILPDSLNLDSLLVDQKQ [SMD1]", "protein stability index": "3.09 ± 0.06"},
      {"sequence": "ILQYFEKWISSKNSKLS [SIR3]", "protein stability index": "1.27 ± 0.083"},
      {"sequence": "ILQYSRTWYESFCGFLL [YJR042W/NUP85]", "protein stability index": "1.42 ± 0.067"},
      {"sequence": "ILRKPGKDCKLQNLQRI [RRI2]", "protein stability index": "3.07 ± 0.13"},
      {"sequence": "ILRQRGPGFKFVDLNEK [SRB4]", "protein stability index": "1.75 ± 0.079"},
      {"sequence": "ILRRQAILRQQQQMANN [GAL11]", "protein stability index": "2.65 ± 0.13"},
      {"sequence": "ILVGGTLKDYQIKGLQW [SNF2]", "protein stability index": "3.16 ± 0.047"},
      {"sequence": "ILYGPPGTGKTLLARAV [RPT6]", "protein stability index": "2.95 ± 0.21"},
      {"sequence": "ILYTSKIVFILDSDSEN [RRI2]", "protein stability index": "1.71 ± 0.037"},
      {"sequence": "IMFNHARIIRSELLARD [RGR1]", "protein stability index": "2.55 ± 0.086"},
      {"sequence": "IMLLQLELGSCFSQENI [SIN4]", "protein stability index": "2.27 ± 0.062"},
      {"sequence": "INAVLVNDNDERAARVV [RPO31]", "protein stability index": "2.56 ± 0.084"},
      {"sequence": "INGEPSIHVNRVERSSR [RRI1]", "protein stability index": "3.1 ± 0.051"},
      {"sequence": "INHEDGFIETTELLNIY [RPN3]", "protein stability index": "3.19 ± 0.066"},
      {"sequence": "INIAQMSACVGQQSVEG [RPO21]", "protein stability index": "3.07 ± 0.1"},
      {"sequence": "INIQKYNNNTIRKLLEK [CSI1]", "protein stability index": "2.54 ± 0.11"},
      {"sequence": "INKLMEKDFQVNKEIKP [SIR4]", "protein stability index": "3.31 ± 0.057"},
      {"sequence": "INLTKVTQKDICILGIL [CSI1]", "protein stability index": "3.11 ± 0.15"},
      {"sequence": "INSENDYSRKQLGYGKF [NUT1]", "protein stability index": "3.17 ± 0.22"},
      {"sequence": "INSGTNSANGSSLNGTN [SSN3]", "protein stability index": "2.7 ± 0.041"},
      {"sequence": "INVVIKASRKSVGLPSK [ECM29]", "protein stability index": "1.26 ± 0.13"},
      {"sequence": "IPDIGDLPDTEGLELLG [PRP8]", "protein stability index": "3.29 ± 0.046"},
      {"sequence": "IPGEYVTYALSGYVRSR [RPS21A]", "protein stability index": "2.92 ± 0.16"},
      {"sequence": "IPHIFYSLHQIRKDPNN [CSE2]", "protein stability index": "2.67 ± 0.042"},
      {"sequence": "IPPLNKSLAMEHKSQVV [CSN12]", "protein stability index": "1.35 ± 0.071"},
      {"sequence": "IPSAAFNFFEPIKEAKI [YMR129W/POM152]", "protein stability index": "2.44 ± 0.025"},
      {"sequence": "IQDTLRTGSQSPPSSSQ [MED7]", "protein stability index": "2.89 ± 0.032"},
      {"sequence": "IQEFQGNPYIELNQDRL [SNF5]", "protein stability index": "3.23 ± 0.04"},
      {"sequence": "IQGFYWAVKEGPLAEEP [SNU114]", "protein stability index": "1.22 ± 0.04"},
      {"sequence": "IQHIAAAMVPFIKFKLI [CDC53]", "protein stability index": "2.43 ± 0.048"},
      {"sequence": "IQLPASLAATYSMISLQ [ARP9]", "protein stability index": "2.19 ± 0.053"},
      {"sequence": "IQLQEFLLSAMTMASKS [NSL1]", "protein stability index": "1.93 ± 0.059"},
      {"sequence": "IQNDEEYDTPALFFDPS [PRP8]", "protein stability index": "2.86 ± 0.071"},
      {"sequence": "IQPKNSDDQQEAVELVI [YML103C/NUP188]", "protein stability index": "3.34 ± 0.12"},
      {"sequence": "IQRGRILPTDGSAEFNV [RPB7]", "protein stability index": "2.79 ± 0.075"},
      {"sequence": "IQRLRLLREKQRVRNMR [YOR098C/NUP1]", "protein stability index": "1.41 ± 0.26"},
      {"sequence": "IRAIRKVISEILTREVQ [RPS1B]", "protein stability index": "1.67 ± 0.14"},
      {"sequence": "IRGIVKQIVHDSGRGAP [RPL2A]", "protein stability index": "2.12 ± 0.07"},
      {"sequence": "IRLAKTLKKNNVAVDII [RPN10]", "protein stability index": "2.56 ± 0.075"},
      {"sequence": "IRPDGRLPHQFRPIEIF [RRP42]", "protein stability index": "2.16 ± 0.073"},
      {"sequence": "IRRAYLHYIPKYNRYEK [RPS11A]", "protein stability index": "1.85 ± 0.044"},
      {"sequence": "ISEEETTVKPLFQNVPE [YAR002W/NUP60]", "protein stability index": "3.01 ± 0.058"},
      {"sequence": "ISEFDSFTDILKSAIRD [RPN12]", "protein stability index": "2.42 ± 0.13"},
      {"sequence": "ISFVLGVRSNHLRSNIL [SMC1]", "protein stability index": "2.47 ± 0.064"},
      {"sequence": "ISGDISDMQHIERLLKD [PRE4]", "protein stability index": "2.99 ± 0.1"},
      {"sequence": "ISKKLQFSYLSSTLGID [PCI8]", "protein stability index": "1.63 ± 0.044"},
      {"sequence": "ISKNPSNGIFYGPSFTK [SIR2]", "protein stability index": "3.15 ± 0.039"},
      {"sequence": "ISLLALPHSPLWELALA [YML031W/NDC1]", "protein stability index": "1.7 ± 0.042"},
      {"sequence": "ISNGNLATGPNLTSEIE [YOR098C/NUP1]", "protein stability index": "3.41 ± 0.091"},
      {"sequence": "ISQPKSMSGRISAKDMG [BRR2]", "protein stability index": "3.15 ± 0.046"},
      {"sequence": "ISQSQLGKFKNIIASPL [SIN4]", "protein stability index": "2.08 ± 0.057"},
      {"sequence": "ISSHSHPVSLISFAIYS [RRP42]", "protein stability index": "1.54 ± 0.033"},
      {"sequence": "ISTHLKTICNLLISDTE [IRR1]", "protein stability index": "1.5 ± 0.032"},
      {"sequence": "ISTVIEVNREEAIGFIR [SMC3]", "protein stability index": "2.57 ± 0.088"},
      {"sequence": "ITAVHVKIRATGGTRTK [RPS14A]", "protein stability index": "1.67 ± 0.042"},
      {"sequence": "ITGEKLDTQLNDLRVSL [SMC1]", "protein stability index": "1.16 ± 0.032"},
      {"sequence": "ITHKLTKNDAGSKQILK [BRR2]", "protein stability index": "3.23 ± 0.055"},
      {"sequence": "ITIQDLLFPKSTIVNLA [DPB4]", "protein stability index": "2.59 ± 0.083"},
      {"sequence": "ITISIHGKPTKGSSLAS [SSN8]", "protein stability index": "2.58 ± 0.041"},
      {"sequence": "ITKVPALEFLNTTLQDN [REC8]", "protein stability index": "2.71 ± 0.084"},
      {"sequence": "ITLALSSNPNSSLHSPT [SRB4]", "protein stability index": "3.05 ± 0.044"},
      {"sequence": "ITLFVLVSVVEAFIASG [FAS2]", "protein stability index": "1.8 ± 0.051"},
      {"sequence": "ITMESVHEWEVSKPSLL [PRP8]", "protein stability index": "3.24 ± 0.056"},
      {"sequence": "ITNDWEQPCVDIISGKI [YJR042W/NUP85]", "protein stability index": "3.02 ± 0.058"},
      {"sequence": "ITRSFKEPRLVIVTDPR [RPS0A]", "protein stability index": "1.28 ± 0.13"},
      {"sequence": "IVDTSGRHHQEEELFQE [SRP54]", "protein stability index": "3.24 ± 0.053"},
      {"sequence": "IVGLATLIVNTDVEKSD [SRP21]", "protein stability index": "3.69 ± 0.26"},
      {"sequence": "IVHSSDGHLQFLNDVIP [DLS1]", "protein stability index": "2.51 ± 0.088"},
      {"sequence": "IVKNAEQHNLVKKGPVR [RPS20]", "protein stability index": "2.95 ± 0.078"},
      {"sequence": "IVNGTEKVILVQEQLSK [RET1]", "protein stability index": "2.29 ± 0.088"},
      {"sequence": "IVSKSIEMYVQEASKQY [RPN2]", "protein stability index": "2.68 ± 0.1"},
      {"sequence": "IVSPQSNKPCMGIVQDT [RPO21]", "protein stability index": "1.58 ± 0.046"},
      {"sequence": "IVTEQPSAEIREAYIEN [SWP82]", "protein stability index": "2.2 ± 0.065"},
      {"sequence": "IVTPVEKAVEEKPAVKS [RPT3]", "protein stability index": "3.13 ± 0.086"},
      {"sequence": "IVVLVPKFGVEGLIRLD [DIS3]", "protein stability index": "2 ± 0.054"},
      {"sequence": "IYLSQNELTDAIALAVR [RPN1]", "protein stability index": "2.59 ± 0.032"},
      {"sequence": "IYRYDEMSNKVLKVDKR [BRR2]", "protein stability index": "2.84 ± 0.047"},
      {"sequence": "IYYTPAFFHLFASLRVL [YJL039C/NUP192]", "protein stability index": "1.75 ± 0.083"},
      {"sequence": "KAAGLTAAYARTIGIAV [RPL13A]", "protein stability index": "1.38 ± 0.089"},
      {"sequence": "KADTDTLLYEQIIQRDK [SNF5]", "protein stability index": "3.29 ± 0.064"},
      {"sequence": "KAEKTLKSTKHSISEAE [SMC4]", "protein stability index": "2.5 ± 0.044"},
      {"sequence": "KAEYVDQYDAERDFYHS [RPO31]", "protein stability index": "3.16 ± 0.06"},
      {"sequence": "KAGKITTIEEIFLHSLP [RPS2]", "protein stability index": "2.94 ± 0.066"},
      {"sequence": "KAGLMTGGISGDANNRW [SMC1]", "protein stability index": "2.51 ± 0.074"},
      {"sequence": "KAGRAFHKYRLKRNSWP [RPL2A]", "protein stability index": "2.05 ± 0.064"},
      {"sequence": "KALDELKPEIEKLTSKS [LRP1]", "protein stability index": "2.74 ± 0.066"},
      {"sequence": "KARAKKTKKEKGPNEEE [RPN2]", "protein stability index": "3.15 ± 0.18"},
      {"sequence": "KARFVSKLAEEKIRAAG [RPL28]", "protein stability index": "2.793 ± 0.024"},
      {"sequence": "KAYVRLTADYDALDIAN [RPL25]", "protein stability index": "3.52 ± 0.091"},
      {"sequence": "KCKEVGITAVHVKIRAT [RPS14B]", "protein stability index": "2.19 ± 0.043"},
      {"sequence": "KDERGEGEAKQKRNAHG [ITC1]", "protein stability index": "3.34 ± 0.14"},
      {"sequence": "KDGETTDANGKTIVTGG [RPO26]", "protein stability index": "3.33 ± 0.047"},
      {"sequence": "KDIVNISIPKTCDEIQN [REC8]", "protein stability index": "2.84 ± 0.042"},
      {"sequence": "KDLENAQVEMKSLEEQE [SMC1]", "protein stability index": "3.3 ± 0.081"},
      {"sequence": "KDLSNYRKTEGIFEKAK [YMR153W/NUP53]", "protein stability index": "2.74 ± 0.086"}
    ]}
  ]
}
